The nanobody polyreactivity screen of Harvey et al. (2022)

Test: yeast display, Sf9 membrane polyspecificity reagent, FACS + sequencing; frameworks hold sequencing errors
Outline: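 After 36–48 hours of galactose induction, yeast (Saccharomyces cerevisiae BJ5465) displaying a synthetic nanobody library were stained at 4 °C for 1 hour with 10% biotinylated, detergent-solubilized Sf9 membrane reagent. Streptavidin microbeads enriched the stained cells before FACS sorting into low and high (top ~1%) gates on anti-HA and streptavidin fluorescence. Each clone's polyreactivity label reflects its gate of origin.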

| Sequence | polyreactivity (PSR sort gate) |
| --- | --- |
| QVQLVESGGGLDQAGGSLRLSSAASGFTISWYDMGWYRQAPGKERELVAAITYTGGSTYYADSVKGRFTISRDNAKNTVYFQMNSLKPEDTAVYYCNADEPSSNMDYWGQGTQVTVSS | low polyreactivity |
| QVQLVESGGGLDQAGGSLRLSSAASGSIFSGYAMGWYRQAPGKERELVAAISSSGTRTYYADSVKGRFTISRDNAKNTVYLQMNSLKPEETAVYYCNAATSKVQFSGYGYWGQGTQVTVSS | high polyreactivity |
| QVQLVESGGGLDQAGGSLRLSSAASGSIFVDNAMGWYRQAPGKERELVAAISRRGGSTYYADSVKGRFTISRDNAKNTVYLQMNSLKPEDTAVYYCNKKNIQFYQGASDYWGQGTQVTVSS | high polyreactivity |
| QVQLVESGGGLDQAGGSLRLTCAASGIIFFEYAMGWYRQAPGKERELVAAISWRGGRTYYADSVKGRFTISRDNAKNSVYLQMNSLKPEDTAVYYCAADFRSWPYYPWSKYDYWGQGTQVTVSS | high polyreactivity |
| QVQLVESGGGLDQAGGSLRLTCAASGRIFGAYAMGWYRQAPGKEMELVAVISLSTGSTYYADSVKVRFTISRDNAKNTVYLQMKSLKPDDTAVYYCAVDTRFKWGWDYYYWGLGTQVTVSS | high polyreactivity |
| QVQLVESGGGLDQAGGSLSLSTAASGFTFYVKAMGLYRQAPGKEREWVAAISSSGTRTYYADSVKGRFTISRDNAKNSVYFQMKCLKPEYTAVYFCAARGQAYSGDRMYYWGQGTQVTVSS | high polyreactivity |
| QVQLVESGGGLDQAGGSRRLSGAASGSTFHGYDKGWYIQAPGKERELVAAITSSGDDTYYADSVKGRFTISRDNAKNTVYLKRNSLKPEDTAVYYCDAEYTEGYTHDYWGQGTKVTVSS | low polyreactivity |
| QVQLVESGGGLDQAGRSLRLSFAASGRTFDLYPMGWYRQAPGKERELVAAITNGETYADSVKGRFTISLDDAKNTVYLQMNSLKPEDTAVYYCAKYDPWFWRAEDYWGQGTQVTVSS | low polyreactivity |
| QVQLVESGGGLDQARGSLRLSCAASGFIFGRYAMGWYRQAPGKVRELVAAISRSGGSTHYADSVKGRFTISRDNAKNTVYLQMNSLKPEDTAVYYCNTYLTIWGYFYGYDYWGQGTQVTVSS | high polyreactivity |
| QVQLVESGGGLDQARGSLRLSCAASGRIFWRYAMGWYRQAPGKERELVASISSGGSTNYADSVKGRFTISRDNAKNTVYLQMNSLKPEDTAVYYCNAQAWHLGVITGRWNRYEYWGQGTQVTVSS | high polyreactivity |
| QVQLVESGGGLDQARGSLRLSCAASGSILRYYTMGWYRQAHGKERELVAAISYRGSSTYYADSVKGRFTISRDNAKNTVYLQMNSLKPEDTAVYYCARGGYYGYDYWGQGTQVTLSS | high polyreactivity |
| QVQLVESGGGLDQARGSLRLSCAASGSTFKRKPLGWYRQATGKERELVAAITQSGGSTYYADSVKGRFTISRDNAKNTVYLLMYSLKPEDTSVYYCAASYLRGRRYEYWGQGTQVTVSS | high polyreactivity |
| QVQLVESGGGLEQAGGSLRLSCAASGITLRVNAMGWYRQAPGKERELVAAITRGTNTYYADSVKGRFTISRDNAKNTVYLQMNSLKPEDTAVYYCAARLPYNAIGYYYWGQGTQVTVSS | low polyreactivity |
| QVQLVESGGGLEQAGGSLRLSCAASGLTFSVYAMGWYRQAPGKERELVAGITSSGGDTYYADSVKGRLTISRDNAKNTVYLQMNSLKPEDTAVYYCNAKYRTFVSKHDYWGQGTQVTVSS | low polyreactivity |
| QVQLVESGGGLFHAGGSLRLSCAASGIIFGGYTIGWYRQAPGKERELVAAISWSGVGTYYADSVKGRFTISRDNAKNTVYLQMNSLKPDDTAVYYCAAWAYYSDDDEYWGQGTQVTVSS | high polyreactivity |
| QVQLVESGGGLFHAGGSLRLSCSASGLTFDINAMGWYRQEPGKERELVAAISRSGGRTYYADSVKGRFTISRDNAKNTVFLQMNSLKPEDTAVYYCADRFIYGYDYWGQGTQVTVSS | high polyreactivity |
| QVQLVESGGGLFQAGGRLRLSCAASGRIFWLYAMGWYRQAPGKERELVAAITGIGGSTYYADSVKGRFTISRDNAKNTVYLQMNSLKPEDTAVYYCAARSPATYPSMGYWGQGTQGTVSS | low polyreactivity |
| QVQLVESGGGLFQAGGRLRLSCAATGSIFSVYTMGWYRQAPGKERELVATISFSVGRTYYADSVKGRFTISRDNEKNSVYLQMNSLKPEDTAVYYCNARSCGGYYHWGQGTQVTVSS | high polyreactivity |
| QVQLVESGGGLFQAGGSHRLSCAATGINFSEYAMGWYRQAPGKERELVAAISKSSGSTRYADSVKGRFTISRDNAKNTVFLQMNSLNPEDTAVYYCAARQYGPRYTYYYWGQGTQVTVSS | high polyreactivity |
| QVQLVESGGGLFQAGGSLRLSCAASGFIFPINAMGWYRQAPGKERELVAAITSGGRTNYADSVKGRFTISRDNAKNTVYLQMNSLKPEDTAVYYCNAVVFVLNVEYYPWLLNNYWGQGTQVTVSS | low polyreactivity |
| QVQLVESGGGLFQAGGSLRLSCAASGFIFSHYAMGWYRQAPGNDREFVATISKRGGSTTYADSVKGRFTISRDNAKNTVYFQMNSLKPVDTAVYDFAADYYPASAGFDYWGQGTQVTVSS | high polyreactivity |
| QVQLVESGGGLFQAGGSLRLSCAASGFIFSYNAMGWYRQAPGKERELVAAISSSGGTTYYADSVKGRFTISRDNAKNTVYLQMNSLKPEDTAVYYCNARWHAEYDYWGQGTQVTVSA | low polyreactivity |

| Sequence | polyreactivity (PSR sort gate) |
| --- | --- |
| QVQLVESGGGLFQAGGSLRLSCAASGFIFTRYAMGWYRQAPGKERELVAAISWSGGSTYYADSVKGRFTISRDNAKNTVYLQMNSLKPEDTAVYYCAADGSDSYDYWGQGTQVTVSS | low polyreactivity |
| QVQLVESGGGLFQAGGSLRLSCAASGFTFYGYAMAWYRHAPGKERELVAAITFRGDRTYYADSVKGRFTISRDNAKNTVYLQINSLKPEDTAVYYCAAVRPSGWYSYLSLYIVRRGYWGQGTQVTVSS | low polyreactivity |
| QVQLVESGGGLFQAGGSLRLSCAASGFTIYHNAMRWYRQEPGKERELVAAISSSGDSTYYADSVKGRFTISRDNAKNTVYLQMNSLKPEDTAVYYCNDYFYYLSLYYYYWFNYDYWGQGTQVTVSS | low polyreactivity |
| QVQLVESGGGLFQAGGSLRLSCAASGIIFRGNAMGWYRQATVKERELVAAISKSGGRTYYADSVKGRFTISRDNAKNTVYLEMICLKPEDSAVYYCAARFYAVGGYDYWGQGTQVTVSS | high polyreactivity |
| QVQLVESGGGLFQAGGSLRLSCAASGIIFYVNAMAWSRQAPGKERERVAVISRRGGSTNDADSVKGRFTISRDNAKNTVYLQMKSLKPEDTAVYYCDAGYRTAYRGSSYYYWGKGTQVTVSS | high polyreactivity |
| QVQLVESGGGLFQAGGSLRLSCAASGITFYYYTMGWYRQAPGKERELVAAISTRGGRTYYADSVKGRFTISRDNAKNTVYLQMNSLKPEDTAVYYCATYQSGVYASKRRLDYWGQGTQVTVSS | high polyreactivity |
| QVQLVESGGGLFQAGGSLRLSCAASGLTFVDNSMGWYRQAPGKEREFVAAITKRGGRTYYADSVKGRFTISRDNAKNTVYLQMTSLKPEDTAVYYCARESGNDSSRRLDYWGQGTQVTVSS | low polyreactivity |
| QVQLVESGGGLFQAGGSLRLSCAASGNTFLRNAMGWYRQPPWKERELVAAISRSGGRTYYADSVKGSFTISRDNAKNTVYLQMISLKPDDTAVYYCAVVTQFGDGYYWGQGTQVTVSS | high polyreactivity |
| QVQLVESGGGLFQAGGSLRLSCAASGRIFDYNVMGWYRQAPGKERELVADINGSGGGTNYADSVKGRFTISRDNAKNTVYLQMNSLKPEDTAVYYCNADSYEYHVPYYDYRYDYWGQGTQVTVSS | low polyreactivity |
| QVQLVESGGGLFQAGGSLRLSCAASGRIFGFYAMGWYRQAPGKERELVARITLSGGRTYYADSVKGRFTISRDNAKNTVYLQMNSLKPEDTAVYYCAADSIGRLWGYGYWGQGTQVTVSS | high polyreactivity |
| QVQLVESGGGLFQAGGSLRLSCAASGRIFNSNTMGWYRPAPGKDRELVARIDTGGGSTYADSVKGRFTISRDNAKNTVYLQMNSLQPEDTAVYHCNKIGRWRSWGSTSLVSMDYWGQGTKVTVSS | low polyreactivity |
| QVQLVESGGGLFQAGGSLRLSCAASGRTFGYYAMGWYRQAPGKERELVAAITGDATTYYADSVKGRFTISRDNAKNTVYLQMNSLQPEDTAVYYCDALFTPALSEYDYWGQGTQVTVSS | high polyreactivity |
| QVQLVESGGGLFQAGGSLRLSCAASGRTFVHNAMGWYRQAPGKERDLVAVITSGARTTYADSVKGRFTISRDNAKNTVYLQMNSLKPEDTAVYYFAAGTFSVIFSYKYRHYYYWGQGTQVTVSS | low polyreactivity |
| QVQLVESGGGLFQAGGSLRLSCAASGRTFYSNDMGWYRQAPGNERELVAAISWRSGSTHYADSVKGRFTISRDNAKNTVYFQMNSLKPEDTAVFYCAARRRDLVPHYYWGQGTQVTVSS | high polyreactivity |
| QVQLVESGGGLFQAGGSLRLSCAASGSIFDDYAMGWYRQAPGKERELVAAISSSGTSTYYADSVKGRFTISRDNAKNTVYLQMNSLKPEDTAVFYCAARSAILKSGYLMDYWGQGTQVTVSS | low polyreactivity |
| QVQLVESGGGLFQAGGSLRLSCAASGSIIRKYAMGWSIQAPGKERELVAAISRRTGNTYYADSVKGRFTISRDNAKNTVYLQMKSLKPEDTAVYYCAADYYSSSSWSEVDSWGQGTQVTVSS | high polyreactivity |
| QVQLVESGGGLFQAGGSLRLSCAASGSILTHYAMGWYRQAPGKERELVAGNTSGGTTNYADSVKGRFTISRDNAKNSVYLQMNSLKPEDTAVYYCNADVWICQRFETGYDFDYWGQGTQVTVSS | low polyreactivity |
| QVQLVESGGGLFQAGGSLRLSCAASGSISYYNAMGWYRQAPGKERELVATITDSGGSTYYADSVKGRFTISRDIAKNTVYLQMISLKPEDTAVYYCAVDFSEWYSIYDYWGQGTQVTVSS | low polyreactivity |
| QVQLVESGGGLFQAGGSLRLSCAASGSTFAPYAMGWYRHATGKERELVAAISNSGGSTYYADSVKGRFTISRDDAKNTVYLQMNCLKPEATAVLYCATLKYPYATSQGYDFWGQCTQVTVSS | high polyreactivity |
| QVQLVESGGGLFQAGGSLRLSCAASGSTFFGYAMGWYRQAPGKERELVAAISSRGGTTNYADSVKGRFTISRDNAKNTVYLQMNSLKPEDNAVYYCNAKDTQEYNRVKYNYWGQGTQVTVSS | high polyreactivity |
| QVQLVESGGGLFQAGGSLRLSCAASGSTFGFYAIGWYRQAPGKERELVARITYSGGSTYYADSVKGRFTISRDNAKITVYLQLNSLIPEDNAVSYCAARSWTHYFRYDYWGQGTQVTVSS | high polyreactivity |
